Test results as given in the nanobody polyreactivity screen of Harvey et al. (2022).

Experiment: yeast display, Sf9 membrane polyspecificity reagent, FACS + sequencing; frameworks hold sequencing errors
How it was run: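 Galactose induction of a Saccharomyces cerevisiae BJ5465 synthetic nanobody display library ran 36–48 hours. The cells were then stained for 1 hour at 4 °C with 10% biotinylated, detergent-solubilized Sf9 membrane reagent, pulled down on streptavidin microbeads and FACS-sorted into low and high (top ~1%) gates on expression and reagent-binding fluorescence. Labels for polyreactivity follow the gate of origin.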

| Sequence | polyreactivity (PSR sort gate) |
| --- | --- |
| QVQLVESGGGLVQAGGSLRLSCAASGGTFYVYAMGWYRQAPGKERELVAAISTSDGITYYADSVKGRFTISRDNAKNTVYLQMNSLNPEDTAVYYCAAVFFSSFTYAYDYWGQGTLVTVSS | high polyreactivity |
| QVQLVESGGGLVQAGGSLRLSCAASGGTIAYNAMGWYRQAPGKERELVAAISSSGGRTYYADSVKGRFTISRDNAKNTVYLQMNSLKPEDTAVYFCATPVNNGFDYWGQGTQVTLSS | high polyreactivity |
| QVQLVESGGGLVQAGGSLRLSCAASGGTIDNAMGWYRQAPGKERELVAAISKHGGRTYYADSVKGRFTISRDNAKNTVYLQMNSLKAEDTAVYYCAADAFRGFFWGQGTQVTVSS | high polyreactivity |
| QVQLVESGGGLVQAGGSLRLSCAASGGTIEYYAMGWYRQAPEKERELVAAISVSGGRTYYADSVKGRFTISRDNAKNTVYLQMNSLKPEDTAVYYCATDSRLWGQGTQVTVSS | high polyreactivity |
| QVQLVESGGGLVQAGGSLRLSCAASGGTIHSYAMGLYRQANGKERDLVAAISGSGGSTYYADSVKGRFTISRDNAKNTFYLQMNSLKPEDTAVYYCAARDWGDGSEYYYWGQGTQVTVSS | high polyreactivity |
| QVQLVESGGGLVQAGGSLRLSCAASGGTLYLYAMGWYRPAPGKERELVAAISYNGGSTYADSVKGRFTISRDNAKNTVYLQMNSLKPEDTAVYYCAADRSPRCLGGYWGQGTQVTVSS | low polyreactivity |
| QVQLVESGGGLVQAGGSLRLSCAASGGTLYRYAMGWYRQAPGKERELVAGISSSGGRTYYADSVKGRFTISRDNAKNTVYLQMNSLKPEDTAVYYCAKYWVSSYDYWGQGNQVTVSS | high polyreactivity |
| QVQLVESGGGLVQAGGSLRLSCAASGGTQRYYAMGWYRQAPGKEREFVASISRSGGSTYYADSVKGRFTISRDNAKNTVYLQMNSLKPEDTAVYYCAAYWSPGYTTRRGYWGQGTQVTVSS | high polyreactivity |
| QVQLVESGGGLVQAGGSLRLSCAASGGTSYAYTMGWYRQAPGKERELVAAISGSTGSTYYADSVKGRFTISRDNAKNTVYLQMNSLKPEDTAVYYCNADISSLYSLSWFRYWYDYWGQGTQVTVSS | low polyreactivity |
| QVQLVESGGGLVQAGGSLRLSCAASGGTYGTNAMGWYRQAPGKERELVAAITKTGVRTYYADSVKGRFTISRDNAKNTVYLQMNSLKPEDTAVYYCAAGNPAWPFNYWGQGTQVTVSS | high polyreactivity |
| QVQLVESGGGLVQAGGSLRLSCAASGGTYNSNAMGWYRQAPAKEREFVAAISSSGGSTYYADSVKGRFTISRDNAKNTVNLQMNSLKPEDTAVYYCAKRYPYPNCRFRFGYWGQGTQVTVSS | high polyreactivity |
| QVQLVESGGGLVQAGGSLRLSCAASGHIFFYYTMGWYRQAPGKERELVAGITIGGSTNYADSVKGRFTISRDNAKNTVYLQMNSVKPEDTAVYYCKVVKYVDIYSYWEYYYWGQGTQVTVSS | low polyreactivity |
| QVQLVESGGGLVQAGGSLRLSCAASGHIFPTNAMGWYRQAPGKERELVAVISESVGSTYYADSVKGRFTISRDNAKNTVYLQMNSLKPEDTAVYYCATQSRYPSLDADYDYWGQGTQVTVSS | low polyreactivity |
| QVQLVESGGGLVQAGGSLRLSCAASGHIFTRNAMGWYRQAPGKERELVAAISRTGGSTYYADSVKGRFTISRDNAKNSVYLQMNSLKPEDTAVYYCAKRRQASEDYWGQGTQVTVSS | high polyreactivity |
| QVQLVESGGGLVQAGGSLRLSCAASGIFGWNTMGWYRQAPGTERELVATISWGGGTTYYADSVKGRFTISRDNAKNTVYLQMNSLKPEDTAVYYCAKVYAVRIGLRYYYWGQGTQVTVSS | low polyreactivity |
| QVQLVESGGGLVQAGGSLRLSCAASGIFLGYAMGWYRQAPGKERELVAGISSGGGTYYADSVKGRFTISRDNAKNTVYLQMNSLKPEDTAVYYCNAASQYTFDSSFDYWGQGTQVTVSS | low polyreactivity |
| QVQLVESGGGLVQAGGSLRLSCAASGIFRGYAMGWYRQAPGKEREFVAAISRTGGGTYYADSVKGRFTISRDNAKNTVYLQMNSLKPEDTAVYYCAAVRKYDGQKFGYWGQGTQVTVSS | low polyreactivity |
